Data: IntAct's records for PubMed 31477895

B1: Ubiquitin carboxyl-terminal hydrolase 15 (Homo sapiens), Q9Y4E8 (parent)
chain: MAEGGAADLDTQRSDIATLLKTSLRKGDTWYLVDSRWFKQWKKYVGFDSWDKYQMGDQNVYPGPIDNSGLLKDGDAQSLKEHLIDELDYILLPTEGWNKLVSWYTLMEGQEPIARKVVEQGMFVKHCKVEVYLTELKLCENGNMNNVVTRRFSKADTIDTIEKEIRKIFSIPDEKETRLWNKYMSNTFEPLNKPDSTIQDAGLYQGQVLVIEQKNEDGTWPRGPSTPKSPGASNFSTLPKISPSSLSNNYNNMNNRNVKNSNYCLPSYTAYKNYDYSEPGRNNEQPGLCGLSNLGNTCFMNSAIQCLSNTPPLTEYFLNDKYQEELNFDNPLGMRGEIAKSYAELIKQMWSGKFSYVTPRAFKTQVGRFAPQFSGYQQQDCQELLAFLLDGLHEDLNRIRKKPYIQLKDADGRPDKVVAEEAWENHLKRNDSIIVDIFHGLFKSTLVCPECAKISVTFDPFCYLTLPLPMKKERTLEVYLVRMDPLTKPMQYKVVVPKIGNILDLCTALSALSGIPADKMIVTDIYNHRFHRIFAMDENLSSIMERDDIYVFEININRTEDTEHVIIPVCLREKFRHSSYTHHTGSSLFGQPFLMAVPRNNTEDKLYNLLLLRMCRYVKISTETEETEGSLHCCKDQNINGNGPNGIHEEGSPSEMETDEPDDESSQDQELPSENENSQSEDSVGGDNDSENGLCTEDTCKGQLTGHKKRLFTFQFNNLGNTDINYIKDDTRHIRFDDRQLRLDERSFLALDWDPDLKKRYFDENAAEDFEKHESVEYKPPKKPFVKLKDCIELFTTKEKLGAEDPWYCPNCKEHQQATKKLDLWSLPPVLVVHLKRFSYSRYMRDKLDTLVDFPINDLDMSEFLINPNAGPCRYNLIAVSNHYGGMGGGHYTAFAKNKDDGKWYYFDDSSVSTASEDQIVSKAAYVLFYQRQDTFSGTGFFPLDRETKGASAATGIPLESDEDSNDNDNDIENENCMHTN

Variants of: B1
Settings: with syvn1_human SYVN1, Q86TM6
syvn1_human SYVN1, Q86TM6, sequence (Q86TM6 whole entry): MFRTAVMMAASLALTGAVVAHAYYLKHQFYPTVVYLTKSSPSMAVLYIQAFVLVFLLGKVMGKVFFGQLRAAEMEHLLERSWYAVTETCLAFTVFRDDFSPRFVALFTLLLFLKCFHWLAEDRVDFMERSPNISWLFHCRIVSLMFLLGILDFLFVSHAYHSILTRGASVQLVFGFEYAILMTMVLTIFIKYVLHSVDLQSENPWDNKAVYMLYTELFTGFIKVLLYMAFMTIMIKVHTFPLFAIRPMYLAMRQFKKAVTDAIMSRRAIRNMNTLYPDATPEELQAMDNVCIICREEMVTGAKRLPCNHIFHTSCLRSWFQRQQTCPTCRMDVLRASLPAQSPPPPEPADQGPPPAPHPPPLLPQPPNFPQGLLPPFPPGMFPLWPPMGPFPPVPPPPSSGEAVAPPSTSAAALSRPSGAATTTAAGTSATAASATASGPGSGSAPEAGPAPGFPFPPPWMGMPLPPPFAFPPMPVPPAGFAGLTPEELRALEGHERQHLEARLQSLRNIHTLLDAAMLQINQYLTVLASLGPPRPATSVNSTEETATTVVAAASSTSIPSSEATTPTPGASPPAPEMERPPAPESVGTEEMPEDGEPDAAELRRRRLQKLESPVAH

Effect of a mutation on the interaction, with no effect:
K228R
K21R
K154R
